# T1: human MOG (hMOG) expressed on HEK293, Expi293F or L929 cells (human, UniProt Q16653 30-247)
# T1 construct: also called hMOG/HEK293; hMOG/HEK293F
# T1 chain: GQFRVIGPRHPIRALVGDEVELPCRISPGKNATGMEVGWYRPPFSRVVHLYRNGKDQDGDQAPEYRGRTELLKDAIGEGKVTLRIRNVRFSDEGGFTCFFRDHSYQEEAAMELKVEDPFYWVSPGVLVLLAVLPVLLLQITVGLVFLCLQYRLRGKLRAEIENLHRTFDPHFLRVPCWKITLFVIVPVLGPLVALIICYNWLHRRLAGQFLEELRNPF
# Key:
# [1] = biological target: T1, human MOG (hMOG) expressed on HEK293, …; assay: phage clone on hMOG/Expi293F cells
# [2] = biological target: extracellular domain protein of human MOG to which FLAG-Fc is added at the C-terminus (hMOG-FLAG-Fc) (human); assay: phage ELISA
# [3] = biological target: T1, human MOG (hMOG) expressed on HEK293, …; assay: flow cytometry on L929 cells expressing human MOG (hMOG/L929); antibody titrated, RPE-labelled goat anti-human antibody
# Description: pEF6_hMOG obtained in Example 5 was introduced to mouse connective tissue-derived fibroblast L929 cells [American Type Culture Collection (ATCC) No.: CCL-1] using HilyMax (manufactured by Dojindo Laboratories). The gene-transfected cells were selected using an antibiotic substance, Blasticidin (manufactured by Invitrogen) and then cloned by the limiting dilution method. Using the L929 cells expressing hMOG on the cell surface (abbreviated as hMOG/L929 below), the reactivities of the bispecific antibodies were analyzed by the method described below.
# The hMOG/L929 cells were suspended in a Staining Buffer (SB) of PBS containing 0.1% NaN₃ and 1% FBS and dispensed to a round-bottom 96-well plate (manufactured by Becton Dickinson). […] After suspending the pellets, the plate was left to stand at ice temperature for 30 minutes. The supernatants were removed after further centrifugation (2000 rpm, 4° C., two minutes), and the pellets were washed with SB. Then, 1 μg/mL RPE fluorescently labeled goat anti-human antibody (manufactured by Southern Biotech) was added, and the plate was incubated at ice temperature for 30 minutes. After washing with SB, the cells were suspended in SB, and the fluorescence intensities of the cells were measured with a flow cytometer FACS CANTO II (manufactured by Becton Dickinson). The results are shown in FIGS. 12A to 12C and FIGS. 13A and 13B.
Binder,binding result [1],binding result [2],binding result [3]
MOG352 (scFv phage clone similar to MOG310 antibody) (scFv) scFv: EVQLVQSGAEVKKPGSSVKVSCKASGGTFSRYAINWVRQAPGQGLEWMGGIIPMFSTVNYAQKFQGRVTITADESTSTAYMELSSLRSEDTAVYYCARDWAVAGMGFDYWGQGTLVTVSSGGGGSGGRASGGGGSAIQMTQSPSSVSASVGDRVTITCRASQGISSWLAWYQHKPGKAPKSLIYAASSLQSGVPSRFSGSGSGTDFTLTISSLQPEDFATYYCQQYNSYPLTFGGGTKVDIK,binds,binds,
MOG426 (scFv phage clone similar to MOG301 antibody) (scFv) scFv: QVQLVQSGAEVKKPGASVKVSCKASGYSFNSYGINWVRQAPGQGLEWMGWISAYTGKTSYAQKVQGRVTMTTDRSTSTAYMELRSLRSDDTAMYYCAREYDILTGYSDAFDTWGQGTMVTVSSGGGGSGGRASGGGGSEIVLTQSPATLSLSPGERATLSCRASQSVSSYLAWYQQKPGQAPRLLIYDASNRATGIPARFSGSGSGTDFTLTISSLEPEDFAVYYCQQRGNWPLTFGGGTKLEIK,binds,binds,
"MOG329 antibody (anti-MOG scFv displayed on phage, pCANTAB_MOG329) (scFv) scFv: QVQLVESGGGLVQPGGSLRLSCAASGFAFRNYAMNWVRQAPGKGLEWVSAISGSGGSTYYADSVKGRFTISRDNSKNTLYLQMNSLRAEDTAVYYCARDYGGISPFDYWGQGTLVTVSSGGGGSGGRASGGGGSDIQLTQSPSSLSASVGDRVTITCRASQGISSALAWYQQKPGKAPKLLIYDASSLESGVPSRFSGSGSGTDFTLTISSLQPEDFATYYCQQFNSYPHTFGQGTKVDIK",binds,binds,
"AVM IgG4PE(R409K)_MOG01dscFv2 antibody (bispecific antibody, also called pCI-AVM-hLG4PE(R409K)_MOG01scFv2) heavy: not shown light: QFVLSQPNSVSTNLGSTVKLSCKRSTGNIGSNYVSWYQQHEGRSPTTMIYRDDKRPDGVPDRFSGSIDRSSDSALLTINNVQTEDEADYFCQSYSSGINIFGGGTKLTVLGQPKAAPSVTLFPPSSEELQANKATLVCLISDFYPGAVTVAWKADSSPVKAGVETTTPSKQSNNKYAASSYLSLTPEQWKSHRSYSCQVTHEGSTVEKTVAPTECS",,,binds
"AVM IgG4PE(R409K)_MOG01dscFv9 antibody (bispecific antibody, also called pCI-AVM-hLG4PE(R409K)_MOG01scFv9) heavy: not shown light: QFVLSQPNSVSTNLGSTVKLSCKRSTGNIGSNYVSWYQQHEGRSPTTMIYRDDKRPDGVPDRFSGSIDRSSDSALLTINNVQTEDEADYFCQSYSSGINIFGGGTKLTVLGQPKAAPSVTLFPPSSEELQANKATLVCLISDFYPGAVTVAWKADSSPVKAGVETTTPSKQSNNKYAASSYLSLTPEQWKSHRSYSCQVTHEGSTVEKTVAPTECS",,,binds
"AVM IgG4PE(R409K)_MOG01dscFv10 antibody (bispecific antibody, also called AVM IgG4PE(R409K)_MOG01dscFvlO antibody; pCI-AVM-hLG4PE(R409K)_MOG01scFv10) heavy: not shown light: QFVLSQPNSVSTNLGSTVKLSCKRSTGNIGSNYVSWYQQHEGRSPTTMIYRDDKRPDGVPDRFSGSIDRSSDSALLTINNVQTEDEADYFCQSYSSGINIFGGGTKLTVLGQPKAAPSVTLFPPSSEELQANKATLVCLISDFYPGAVTVAWKADSSPVKAGVETTTPSKQSNNKYAASSYLSLTPEQWKSHRSYSCQVTHEGSTVEKTVAPTECS",,,binds
"AVM IgG4PE(R409K)_MOG01dscFv8 antibody (bispecific antibody, also called pCI-AVM-hLG4PE(R409K)_MOG01scFv8) heavy: not shown light: QFVLSQPNSVSTNLGSTVKLSCKRSTGNIGSNYVSWYQQHEGRSPTTMIYRDDKRPDGVPDRFSGSIDRSSDSALLTINNVQTEDEADYFCQSYSSGINIFGGGTKLTVLGQPKAAPSVTLFPPSSEELQANKATLVCLISDFYPGAVTVAWKADSSPVKAGVETTTPSKQSNNKYAASSYLSLTPEQWKSHRSYSCQVTHEGSTVEKTVAPTECS",,,binds
"AVM IgG4PE(R409K)_MOG01dscFv4 antibody (bispecific antibody, also called pCI-AVM-hLG4PE(R409K)_MOG01scFv4) heavy: not shown light: QFVLSQPNSVSTNLGSTVKLSCKRSTGNIGSNYVSWYQQHEGRSPTTMIYRDDKRPDGVPDRFSGSIDRSSDSALLTINNVQTEDEADYFCQSYSSGINIFGGGTKLTVLGQPKAAPSVTLFPPSSEELQANKATLVCLISDFYPGAVTVAWKADSSPVKAGVETTTPSKQSNNKYAASSYLSLTPEQWKSHRSYSCQVTHEGSTVEKTVAPTECS",,,binds
MOG308 (scFv phage clone similar to MOG310 antibody) (scFv) scFv: EVQLVQSGAEVRKSGSSVKVSCKASGGTFSRYAISWVRQAPGQGLEWMGGIIPMFSTTNYAQKFQGRVTITADESTSTAYMELSSLRSEDTAVYYCARDWAVAGMGFAYWGQGTLVTVSSGGGGSGGRASGGGGSEIVMTQSPATLSLSPGERATLSCRASQSVSSYLAWYQQKPGQAPRLLIYDASNRATGIPARFSGSGSGTDFTLTISSLEPEDFAVYYCQQRSNWPPTFGQGTKVDIK,binds,binds,
MOG338 (scFv phage clone similar to MOG310 antibody) (scFv) scFv: QVQLVQSGAEVKKPGSSVKVSCKASGGTFSRYAISWVRQAPGQGLEWMGGIIPMFNTANYAQKFQGRVTITADESTSTAYMELSSLRSEDTAVYYCARDWAVAGMGFDPWGQGTLVTVSSGGGGSGGRASGGGGSEIVLTQSPATLSLSPGERATLSCRASQSVSSYLAWYQQKPGQAPRLLIYDASNRATGIPARFSGSGSGTDFTLTISSLEPEDFAVYYCQQRNNWPLTFGGGTKLEIK,binds,binds,
"MOG456 antibody (anti-MOG scFv displayed on phage, pCANTAB_MOG456) (scFv) scFv: EVQLVESGGGLVKPGGSLRLSCAASGFTFSSYSMHWVRQAPGKGLEWVSSIGSRSRYIYYADSVKGRFTISRDNAKNSLYLQMNSLRAEDTAVYYCAKGYYDILTGSLFDYWGQGTLVTVSSGGGGSGGRASGGGGSDIVMTQSPSSLSASVGDRVTITCRASQGISSALAWYQQKPGKAPKLLIYDASSLESGVPSRFSGSGSGTDFTLTISSLQPEDFATYYCQQFNSYPWTFGQGTKVEIK",binds,binds,
MOG357 (scFv phage clone similar to MOG303 antibody) (scFv) scFv: EVQLVETGGGLVQPGGSLRLSCAASGFTFSSYAMSWVRQAPGKGLEWVSDINHSGGSTYYADSVKGRFTISRDNSKHTLYLQMNSLRAEDTAVYYCAKDYYDILTGSFFDYWGQGTLVTVSSGGGGSGGRASGGGGSDIVMTQSPSSLSASVGDRVTITCRASQGISSALAWYQQKPGKAPKLLIYDASSLESGVPSRFSGSGSGTDFTLTISSLQPEDFATYYCQQFNSYPWTFGQGTKVEIK,binds,binds,
MOG470 (scFv phage clone similar to MOG329 antibody) (scFv) scFv: QVQLVESGGGLVQPGGSLRLSCAASGFTFSSYAMNWVRQAPGKGLEWVSAISGSGGSTYYADSVKGRFTISRDNSKNTLYLQVNSLRAEDTAVYYCARDYGGISPFDYWGQGTLVTVSSGGGGSGGRASGGGGSEIVMTQSPATLSLSPGERATLSCRASQSVSSYLAWYQQKPGQAPRLLIYDASNRATGIPARFSGSGSGTDFTLTISRLEPEDFAVYYCQQYGSSPYTFGQGTRLEIK,binds,binds,
MOG314 (scFv phage clone similar to MOG303 antibody) (scFv) scFv: QVQLVESGGGLVQPGGSLRLSCAASGFTFSSYAMSWVRQAPGKGLEWVSAISGRGSSTYYADSVKGRFTISRDNSKNTLYLQMNSLRAEDTAVYYCAKGYYDILTGSFFDYWGQGTLVTVSSGGGGSGGRASGGGGSDIQLTQSPSSLSASVGDRVTITCRASQGISSALAWYQQKPGKAPKLLIYDASSLESGVPSRFSGSGSGTDFTLTISSLQPEDFATYYCQQFNSYPYTFGQGTKLEIK,binds,binds,
MOG315 (scFv phage clone similar to MOG303 antibody) (scFv) scFv: EVQLVESGGGLVQPGGSLRLSCAASGFTFSTYAMSWVRQAPGKGLEWVSAISGSGVSTYYADSVKGRFTLSRDNSKNTLYLQMNSLRAEDTAVYYCAKAYYDILTGNFLDYWGQGTLVTVSSGGGGSGGRASGGGGSAIQLTQSPSSLSASVGDRVTITCRASQGISSALAWYQQKPGKAPKLLIYDASSLESGVPSRFSGSGSGTDFTLTISSLQPEDFATYYCQQFNSYPLTFGGGTKVEIK,binds,binds,
MOG476 (scFv phage clone similar to MOG303 antibody) (scFv) scFv: EVQLVESGGGLVQPGGSLRLSCAASGFTFSSYAMNWVRQAPGKGLEWVSAISYSGRSTYYADSVKGRFTISRDNSKNTLYLQMNSLRAEDTAVYYCAKGLYDILTGGGFDYWGQGTLVTVSSGGGGSGGRASGGGGSDIQMTQSPSSLSASVGDRVTITCRASQGISSALAWYQQKPGKAPKLLIYDASSLESGVPSRFSGSGSGTDFTLTISSLQPEDFATYYCQQFNSYPSTFGQGTRLEIK,binds,binds,
MOG316 (scFv phage clone similar to MOG310 antibody) (scFv) scFv: EVQLVQSGAEVKKPGSSVKVSCKASGGTFSRYAISWVRQAPGQGLEWMGGIIPMFNTANYAQKFQGRVTITADESTSTAYMELSSLRSEDTAVYYCARDWAVAGMGFNYWGQGTLVTVSSGGGGSGGRASGGGGSDIQMTQSPSSLSASVGDRVTITCRASQGINSALAWYQQKPGKAPKLLIYAASSLQSGVPSRFSGSGSGTDFTLTISSLQPEDFATYYCQQYNSYPITFGQGTRLEIK,binds,binds,
